± gives the standard error. This sample holds only a part of the variants without activity.
B1: glmS ribozyme (parent)
chain: AUAAAAGCGCCAGAACUACAGAAAUGUAGUUGACGAGGAGGAGGUUUAUCGAAUUUUCGGCGGAUGCCUCCAAA

Experiments:
Details in all cases: with glucosamine-6-phosphate
glucosamine-6-phosphate [1] = variants of: B1; test: self-cleavage kobs at 640 uM GlcN6P; higher = faster cleavage; RNA array
Outline: (§1)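 Tiles bearing barcoded ribozyme variants, transcribed in situ by E. coli RNA polymerase on sequenced MiSeq chips, were imaged over ~14 h at 37 °C using a hybridised Cy3 probe. Glucosamine-6-phosphate was supplied at 40 μM to 10 mM in HEPES/KCl/Mg(OAc)2 buffer. kobs came from one- or two-exponential decay fits to normalised per-tile medians, and weighted Michaelis–Menten fits then provided kcat and KM.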

glucosamine-6-phosphate [2] = variants of: B1; test: self-cleavage kobs at 2500 uM GlcN6P; higher = faster cleavage; RNA array
Outline: as §1

glucosamine-6-phosphate [3] = variants of: B1; test: self-cleavage kobs at 10000 uM GlcN6P; higher = faster cleavage; RNA array
Outline: as §1

Variant	self-cleavage kobs at 640 uM GlcN6P (glucosamine-6-phosphate [1]) [s⁻¹]	self-cleavage kobs at 2500 uM GlcN6P (glucosamine-6-phosphate [2]) [s⁻¹]	self-cleavage kobs at 10000 uM GlcN6P (glucosamine-6-phosphate [3]) [s⁻¹]
C10G G66U	< 1e-05	< 1e-05	< 1e-05
C8G G35A C70G	< 1e-05	–	–
C10A U49C	< 1e-05	–	–
G9A C61G C68A	< 1e-05	< 1e-05	–
C10A A14C C67U C68A	0.0002 ± 7e-05	–	–
C8A A12U A15U C70A	< 1e-05	–	–
C8G G13U A33U G38A	< 1e-05	–	–
G9U A36U G40U G60A	< 1e-05	–	–
C8U C10U U45C	< 1e-05	< 1e-05	–
C11A G13U C58A G62C	< 1e-05	–	–
C10G A48U A52U	< 1e-05	–	–
G9A G29C G32A G38U	< 1e-05	–	–
C11A C50U G59C	< 1e-05	< 1e-05	–
C8U A15C C16G U30C	< 1e-05	–	–
C10G C34G G41U U45A	< 1e-05	< 1e-05	–
G9A G29A A33C G66A	< 1e-05	–	–
C11A U31C A42C	< 1e-05	–	–
C10U G43A C50A	< 1e-05	–	–
C11A A12U C16U C70U	0.00025 ± 7.2e-05	0.000524 ± 0.00013	–
C11G A33U U54A U65G	< 1e-05	–	–
G9A G13C A64G C70U	< 1e-05	–	–
C8G U30C A64C	< 1e-05	< 1e-05	< 1e-05
C10U U31A G40U U49C C58U G59U C70G	< 1e-05	–	–
C11G G29U A42C	< 1e-05	< 1e-05	–

Variant	self-cleavage kobs at 640 uM GlcN6P (glucosamine-6-phosphate [1]) [s⁻¹]	self-cleavage kobs at 2500 uM GlcN6P (glucosamine-6-phosphate [2]) [s⁻¹]	self-cleavage kobs at 10000 uM GlcN6P (glucosamine-6-phosphate [3]) [s⁻¹]
C10G A14C G44C G51C	< 1e-05	–	–
C8U G44U G60U	< 1e-05	–	–
C10G A36G U45G U49A G66A C71U	< 1e-05	< 1e-05	–
C10A A36U C68A	0.000222 ± 9e-05	–	–
C8G G13U A33U U57G	< 1e-05	< 1e-05	–
G9A C10U A42G A53U	< 1e-05	< 1e-05	–
C11G G38A G43C	< 1e-05	< 1e-05	–
C8G U31A A39C G44U	< 1e-05	–	–
C10U G41C G44U U55C C58U	< 1e-05	–	–
C8G A64C C68G	< 1e-05	< 1e-05	–
C11A A36G C50A A64C C68A	< 1e-05	–	–
C10G C67G C68U	0.0001 ± 4.2e-05	7.32e-05 ± 3e-05	2.77e-05 ± 1.3e-05
G9A G29U G41A U45A U47G C50U C70U	< 1e-05	–	–
G9A C16U C58U	< 1e-05	–	–
G9A C10U C58U	< 1e-05	–	–
G9C C16A G63C C71G	< 1e-05	–	–
C11A A33G G51A C71U	< 1e-05	–	–
C8G C50U A53U U55G	< 1e-05	–	–
C8U U30A G62C	< 1e-05	–	–
C11A G35C C50U C58U	< 1e-05	< 1e-05	–
G9C C11U U56G G66C	< 1e-05	–	–
C10G G66U C68G C71A	8.79e-05 ± 3.1e-05	–	–
G9A C11U G29C G35U G59C	< 1e-05	< 1e-05	–
G7U C71A	< 1e-05	–	< 1e-05

Variant	self-cleavage kobs at 640 uM GlcN6P (glucosamine-6-phosphate [1]) [s⁻¹]	self-cleavage kobs at 2500 uM GlcN6P (glucosamine-6-phosphate [2]) [s⁻¹]	self-cleavage kobs at 10000 uM GlcN6P (glucosamine-6-phosphate [3]) [s⁻¹]
C8U U30A C71U	< 1e-05	–	–
G7U G38U G40U	< 1e-05	–	–
C8G U31C G38A	< 1e-05	–	< 1e-05
C10G G38U U49G C58G A64C U65A C67U C68U	0.000308 ± 8.3e-05	–	–
G7U C11A C50G C70U	0.000451 ± 0.00011	0.000157 ± 3.1e-05	0.00016 ± 3.1e-05
G9U C10A	< 1e-05	< 1e-05	–
C11G A15G C50G G66U	0.000661 ± 0.00032	–	–
G9U G44A A64C	< 1e-05	–	–
G7U C11G A64U	< 1e-05	< 1e-05	< 1e-05
C10G A33G	< 1e-05	–	< 1e-05
C10G U30C G38U	< 1e-05	–	–
C8G G13C A52U A53U C71U	< 1e-05	–	< 1e-05
C10G C16U A52U U54C G66A	< 1e-05	–	–
G7U C34U A39C U69C	< 1e-05	–	–
G9U U30G U31C A39C A64G	< 1e-05	< 1e-05	–
G9U A36G U45C A48C G60U C68G	< 1e-05	< 1e-05	< 1e-05
C8U A33C G35C U56G U65C	< 1e-05	< 1e-05	–
C8G U30A G43U	< 1e-05	–	–
G9U A15G U55A	< 1e-05	–	–
C11G C16A U31C A42U	< 1e-05	–	–
G9U G63A	< 1e-05	< 1e-05	< 1e-05
C10U U49G C58A	< 1e-05	–	–

— the supplement of paper PMC7125110
